Measured values from US20230051580A1 (HUDSON INSTITUTE OF MEDICAL RESEARCH, published 2023).

T1: recombinant full-length (mature) human CXCL10 (human, UniProt P02778 22-98)
T1 construct: Recombinant protein from Genscript, used for immunisation and as the assay standard; also called full-length CXCL10; IP-10
T1 sequence: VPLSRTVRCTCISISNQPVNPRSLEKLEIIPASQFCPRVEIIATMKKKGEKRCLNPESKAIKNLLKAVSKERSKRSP

T2: short peptide comprising the intact N-terminus of human CXCL10 (NH2-VPLSRTVRCTCISISNQPVNPRSLE-COOH) (human)
T2 construct: Synthesised by Mimotopes; also called N-terminally intact CXCL10 peptide
T2 peptide: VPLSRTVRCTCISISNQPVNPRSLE

T3: short peptide comprising the truncated N-terminus of human CXCL10 (NH2-LSRTVRCTCISISNQPVNPRSLE-COOH) (human)
T3 construct: Synthesised by Mimotopes; also called VP-truncated N-term; N-terminally truncated form
T3 peptide: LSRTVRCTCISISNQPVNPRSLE


Key:
Experiment in all cases: SPR (ProteOn XPR36), antibody immobilised, antigen applied
[1] = target: T1, recombinant full-length (mature) human …
Description: (§1) Two monoclonal antibodies; namely mAb-RA2 specific for full length, N-terminally intact CXCL10, and mAb-RG2 specific for both full length and truncated CXCL10, were analysed by Surface Plasmon Resonance (SPR) for binding affinity against both forms of CXCL10. Experiments were performed using a ProteOn XPR36 SPRi biosensor (BioRad), equipped with a GLC chip. The chip was conditioned with 0.5% SDS, 50 mM NaOH and 100 mM HCl, and then the lanes were activated using equal parts 1-Ethyl-3-(3-dimethylaminopropyl) carbodiimide (EDAC) and N-Hydroxysuccinimide (NETS). The antibodies were immobilised in separate lanes at a concentration of 50 μg/mL in sodium acetate buffer (pH4.5), then each lane deactivated using ethanolamine. Antigens were applied to each lane, and binding was recorded as RU. All channels were regenerated using 0.85% […] between applications of antigen. Interspot and control RU were subtracted to give specific binding.
(§2) The inventors developed a monoclonal antibody that could differentiate between the N-terminally intact, chemotactically active form of CXCL10 and all other variants. Using full-length CXCL10 protein as the antigen, hybridoma clones were isolated and screened for reactivity against (i) full-length CXCL10 protein; and (ii) short synthetic peptides, representing either the intact or truncated N-terminus of CXCL10. Antibodies secreted by clone mAb-RA2 recognized both full-length and N-terminally intact CXCL10, but not the N-terminally truncated form (Table 4). Antibodies secreted by clone mAb-RG2 reacted with all proteoforms of CXCL10 tested. […] The open reading frames encoding the variable regions of both antibodies was sequenced.

[2] = target: T2, short peptide comprising the intact …
Description: as §1, §2

[3] = target: T3, short peptide comprising the truncated …
Description: as §1, §2

Row | Kd [1] | Kd [2] | Kd [3] | binding result [3] | Binder
1 | 3.89 pM | 3540 pM | 3000 pM |  | anti-CXCL10 monoclonal antibody mAb-RG2 (antibody, V domains shown, It was immobilised on the chip in SPR, and used biotinylated as the detection antibody in the sandwich ELISA (ART); also called anti-CXCL10 antibody RG2) VH: QIQLVQSGPDLKKPGETVKISCKASGYTFTNYGMNWVKQAPGKGLKWMAWINTNSGEPTYAEEFKGRFALSLDTSASTAYLQINNLKNEDTATYFCARYTGEFFYNGSSYVSYWYFDVWGAGATVTVSS VL: DIVLTQSPASLAVSLGQRATISCRASKSVSSSGYSYMHWYQQKPGQPPKLLIYLASNLESGVPARFSGSGSGSDFTLNIHPVEEEDAATYYCQHSRDLPWTFGGGTKLEIKR
2 | 490 pM | 736 pM |  | no binding | anti-CXCL10 monoclonal antibody mAb-RA2 (antibody, V domains shown, It was immobilised on the chip in SPR, and used biotinylated as the detection antibody in the sandwich ELISA (ART); also called anti-CXCL10 antibody RA2) VH: QVQLQQPGAELVRPGASVKLSCKASGYTFTSHWMIWVKQRPGQGLEWIGMIDPSDSATHYNQMFKDKATLTVDKSSSTAYMQLSSLTSEDSAVYYCANTRHDESWGQGTLVTVSA VL: DIQMTQSPSSLSASLGGRVTITCKASQDIHKYIAWYQHKPGKGPRLLIYDTSTLQPGIPSRFTGSGSGRDYSFSISNLEPEDIATYYCLQYDDLYTFGGGTKLEIKR
